Experiment: soluble fraction after stress (log2 fold change); higher = more stays soluble; pooled small domains, quantitative proteomics
Conditions: stress: 75 degC
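Note: 20 min heating vs room temperature control held 20 min.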

HMNILDPTVMKNILDKNHEEFIAIYESAPLGQKTIINSMVFDKRLNGENVDANILMYLQNKTNIDYINIEP
soluble fraction (log2): -0.536

HMNILNYIIENENQEVRVDKFLSDTIEDMSRSSVASIIEDGGLLVNDKLQNKKYKLKIGDKVQFTVPDPV
soluble fraction (log2): 0.0982

HMNILVAISDTGEIWINKRRVDARAVQANIERLHAENPQGTVVIQADKQATTETLIKVMDASRAAGVFDVS
soluble fraction (log2): -0.691

HMNINLDINTYTVKELEKLLKLEVPYSDNNVFEKKNLMVKMIQTSTIAETKKEELYIFLDNIYNRLTNNLE
soluble fraction (log2): -1.59

HMNISLGALVTITDQKGRSHTVTLESGKQFFTNHGSINHDEIIKAGEGGVVASSSGMLYTIFTP
soluble fraction (log2): -0.924

HMNISRESLIGQILATLNKNPEEGFNYKQIAKRLNITDSPGRQMISDLLRELSKHGSLQEISHGKYKIKV
soluble fraction (log2): -0.237

HMNITHEINVKSKSKIDFLENNKNLAQFFLTKNPNQFNYNLVFSDKSELNIIKEKIESHKDIEDIDIRYG
soluble fraction (log2): -0.0863

HMNIVINVDTPTFEQMKATYQAPGTLPAGASFHAKLKGVTVTGYTKSHKVMFQGALANQEAARWQ
soluble fraction (log2): -1.88

HMNIYFNIEDAVANAVVENGKMSAAIYEKNVDTGEVAKLAEVSMPVMGGNINITKTLLTKALISQLP
soluble fraction (log2): -0.71

HMNKAYLTVADMKKDKSLKNGDVVRTLGYYGYNDGDGAVYQIKDSHPEDYHIRLDNGLDAEQINY
soluble fraction (log2): 0.185

HMNKEHINLDSSKFLSLLNKTKISMSNDETRHYLNGIYIHPTVSNKSSYLTGVATDSHRLSSSSIPVD
soluble fraction (log2): -0.366

HMNKMIIELGEKLKALRTENHLRQDQVARLVNVEKSSISMYETGMRQPSYTTLVRLADVFNVTTDYLLGRK
soluble fraction (log2): -2.37

HMNKPTSMYKLRLLLKHYHAGASKRWMADVLDISRSTLNVYLARIESLNLAFEEWEALSDLEVSRLLINP
soluble fraction (log2): -3.22

HMNKVAQFYRELVSTLSERLRNGERDIDALVEQARVRISQSGELTQSEIENVIRAVRRDLEEFALSYEE
soluble fraction (log2): -0.0274

HMNLAISAYQQLKSDIIRGVYAPGEKLLMSRLKVRYGLGIGPMREALSQLVSEHLVTAASQRGYRVAGM
soluble fraction (log2): -1.79

HMNLAPLLTEYVQINFRRASEMKTYLEQANLISERGFLLADDQTNILMVRETGASIEEIRRTLNRF
soluble fraction (log2): -1.92

HMNLFKAPMPGLIRTIVVAEGQEVKKGDVILILEAMKMENALKSPADLVVKSIKVQQGQAVEKNQLLIEF
soluble fraction (log2): -2.44

HMNLGNLLKIYRKNSLLTQQQVADALNINRTTYTYYETGKTEPSIDTLHKLIKIFGITYDDLL
soluble fraction (log2): -2.88

HMNLKDINLNVRHYKIIDFVREHGYASIETLTRQFGVSAQTVRRDIIYLDNQAVLKRHHGGVGTLPG
soluble fraction (log2): -1.97

HMNLPTSGVDALTPAERRVARMAGDGQSNREIAQTLFVTRKTVEIHLTSVYRKLGIASRAELSARL
soluble fraction (log2): -2.68

HMNLQGIISQKAIVTQTIEPYETGVAKLNGEEWTAMSKDETRIEAGKLVEVVAIEGVKLIVKEVS
soluble fraction (log2): -0.311

HMNLVELKHAEEFNTLIIQDIGGRMKPAHTLASELVRKVFHNDDFNGIDPRKVFLSIIENSKVWFNVPFI
soluble fraction (log2): 0.0116

HMNLYENLATHVKNAIRQGVYQPGDRLPSVRRLSEQHRVSQNTAVSAYRLLESHGWLEARPQSGFFARHP
soluble fraction (log2): -1.42

HMNLYERFPIHELWKETFNETLDEEEHITFITSEFKPENIVLGQGFIAAPSKKDAVDWLKVIRTVLIFYDS
soluble fraction (log2): -2.37

HMNMANFARIRLILELHDRGMSQDEISRSRHMSRSTITTVLRTARKKGITYAGIRKLDDAALQKLFFPDR
soluble fraction (log2): -4.02

HMNMDLGHSISKLRTDANLTQEKFAQILNVSRQTVQKWEYGEALPDIHNIIKIAKFFNISLDALVLRS
soluble fraction (log2): -3.02

HMNMIGDVIRNLRTVSSMTQTELGQRMGVIKQTISNWEKNISTPSIDAIVKLSSIFNVPTDYLL
soluble fraction (log2): -1.22

HMNMMESNLFAVYDNDDIVKTLRQGAMEIDSLIRLMGKSSAEVLEKLTTMELQGIITRSGNIIALNN
soluble fraction (log2): -0.427

HMNMNDIKFGKYLKRVRKKYNFSKEYVANILKVKESLVSDWESGRLTLNDEYMEKLSLFYGVNLYKK
soluble fraction (log2): -1.57

HMNMPDVTVEWVKEQQAKFGLTDSDLAKSVNIDNANLARIFNQRGLTKIHKALFYYFFRAYGLQ
soluble fraction (log2): -3.33

HMNMRVLSEQPNKKSYQDGNLRLKVFGASFKKSDILNEALNQARVEETGLQIPKLLEVKQIDGQWTIVTE
soluble fraction (log2): -0.0583

HMNMVSGHLQVKKGYYYAVLSFYDSKNKRHVKYISTGLPEKGNKRKAEAELVKIRNAFEPPAE
soluble fraction (log2): -0.516

HMNNESEGAIMLRQYSSLSAYLTKYNIDVNSKKAQQYASSLKLAQEKGSAEGQKYLSSISSELDD
soluble fraction (log2): -0.205

HMNNIIEQIKADIKKLEEKLDKSSENALNKLEKDYSSLSTESKKKLDDAGYGARIKALRVKFAALSTQ
soluble fraction (log2): -0.0452

HMNNISKKIKELREQNNITQNKLANDLFIKQQTVAQWENGSRALKADSIISLAKYFNVSTDYLLGLTEN
soluble fraction (log2): -0.898

HMNNLKTKELSKIGYTNDKARSLVISIIPKHFKYHSKSEIIELLTNIKNKPEDYVSDEILGKIAETFMEKI
soluble fraction (log2): -1.23

HMNNLSEELNVTFPRTRDQLLNILHYVQHKYGYISKVSMQEIGNHIKMPVSEIYGTVTSYSEFKI
soluble fraction (log2): -2.25

HMNNLTEEAINHLVLEVKNVLLTDALFLGKATDSQLMLRIKETIDQRNGQYNIGMNDRERIARRVFARLR
soluble fraction (log2): -2.19

HMNNLVGKTKVLKSNTNIYAYKTMSGKFYSYLPNTRVRVLQDLGYINYIEVIATKRRGYVYENVY
soluble fraction (log2): -0.234

HMNNNIFVYPNPSINYINIDSDEEIWKLEIIQMSGEKINILPFSKRIDISFLSKGLYILNFNNYYIKFIK
soluble fraction (log2): -0.136

HMNNQIFGLKFRQLRKQQHITLAKAAAGITSRQSLGNWETGKGELAFEKVLLLLKKINVQPIDFLESSIS
soluble fraction (log2): -3.9

HMNNQILYERLRDLRERNHFTQAFVSSKLNIGRATYSNYERGKRTPSLDVIMDLASFYKVPFTYF
soluble fraction (log2): 0.0974

HMNNQMTFSKFLNEVDAGRVVEVEIQGNNIKGVLADGNRFNTFSPNYPNLVEKLSDKGVSITAAPK
soluble fraction (log2): 0.174

HMNPASVLDGLKITSFSPTRAIVAGPGGSRIVFDNEAVVLGGIEWDVHIQRNGIEFTSQGQTVLLLFDRS
soluble fraction (log2): -2.35

HMNPDDEMLLTYLTKLLVDKQFIVNSNDIFEYILRRVDRTYDGIYDIVSKLDVLSLEKKRQLTIPLIKEI
soluble fraction (log2): 0.288

HMNPETIHNDYKAFIKFAFSGLSYYSKVWNQNREMITPGLLETLWQKYRHLSIGEIETILEKIIKEG
soluble fraction (log2): -2.38

HMNPGNTESFPVYQKRLGEIIQTLAGKKGQDINSPEVKELVGEYDFLTKQMFQLPDATSMVMEIATAYRN
soluble fraction (log2): 0.0725

HMNPKTELMVYLKKRDEWVASQILSDVLQVSTRTIRKFVKEINMDYQTENVILSSSKGYKLNQNLLSSL
soluble fraction (log2): -1.19

HMNPLPALLRYFRQKAGLTQQDVAAALSISRSGYANYEEGRNIPNIEQAIKLSELLNHDFLYAYTLSS
soluble fraction (log2): -2.53

HMNPNYIKKLREKNQLTQEYLAAQIGVSRPTYAQIEQGQRGLTVTEAKKMADIFSLALDDFLAEKN
soluble fraction (log2): -0.135

HMNPSIALHDWLQSSEFKGSINLFAAALGMNPRTVEAWVYGRSTPSRRFWAKLYQITNLSRFRL
soluble fraction (log2): -1.08

HMNPYLWQRVRLLFSNVGVINNSATVDLVFSAPKGVLTEDLANNFSAALVKKGKEELGLDDIKITISVIPN
soluble fraction (log2): -3.67

HMNQADNFNSLTKREKDVLLLVTQGESNKSIADKLVLSEVTVKSHLNSIFKKLNVTNRTQAVLVAMQMNLV
soluble fraction (log2): -1.6

HMNQAIIVPDVKGLPLEEATTFFENNDLRYTVIDSVYTKDVPPGAIYEMVPGAGSKVKEGRIIFVTLNAR
soluble fraction (log2): -0.183

HMNQASLTYSEFIANVESKAITRVTISGDTISGILADGKPFQTIYPMADLELLPILRRSGVDINVKEVQ
soluble fraction (log2): -1.51
